{"source": "paper PMC8049259", "about": "“Structure of the E. coli agmatinase, SPEB” (PLoS ONE, 2021)", "proteins": {"B1": {"name": "E. coli agmatine ureohydrolase (agmatinase, SPEB) (enzyme, UniProt P60651 1-306, looked up)", "chain": "MSTLGHQYDNSLVSNAFGFLRLPMNFQPYDSDADWVITGVPFDMATSGRAGGRHGPAAIRQVSTNLAWEHNRFPWNFDMRERLNVVDCGDLVYAFGDAREMSEKLQAHAEKLLAAGKRMLSFGGDHFVTLPLLRAHAKHFGKMALVHFDAHTDTYANGCEFDHGTMFYTAPKEGLIDPNHSVQIGIRTEFDKDNGFTVLDACQVNDRSVDDVIAQVKQIVGDMPVYLTFDIDCLDPAFAPGTGTPVIGGLTSDRAIKLVRGLKDLNIVGMDVVEVAPAYDQSEITALAAATLALEMLYIQAAKKGE", "notes": "E. coli agmatinase SPEB, UniProt P60651, a 306 residue protein; cloned in pTHT (a pET-28 variant with a TEV protease site in place of the thrombin site); Two Mn2+ ions were modelled in each active site; also called agmatine amidinohydrolase; SPEB-THT (plasmid); source: E. coli BL21(DE3), purified (Ni-NTA, size exclusion chromatography)"}}, "target": "the molecule itself", "test": "SEC; Superdex 200 10/300 GL, 30 mM Tris pH 7.0, 50 mM sodium chloride; oligomeric state judged from the elution profile"}
{"protein": "B1", "values": [{"measurement": "stoichiometry N", "value": 6}]}
